Assay results reported in patent publication US20230357341A1.

T1: cat EPOR expressed on Ba/F3 cells (BaF3/cat EPOR) (cat)
T1 sequence: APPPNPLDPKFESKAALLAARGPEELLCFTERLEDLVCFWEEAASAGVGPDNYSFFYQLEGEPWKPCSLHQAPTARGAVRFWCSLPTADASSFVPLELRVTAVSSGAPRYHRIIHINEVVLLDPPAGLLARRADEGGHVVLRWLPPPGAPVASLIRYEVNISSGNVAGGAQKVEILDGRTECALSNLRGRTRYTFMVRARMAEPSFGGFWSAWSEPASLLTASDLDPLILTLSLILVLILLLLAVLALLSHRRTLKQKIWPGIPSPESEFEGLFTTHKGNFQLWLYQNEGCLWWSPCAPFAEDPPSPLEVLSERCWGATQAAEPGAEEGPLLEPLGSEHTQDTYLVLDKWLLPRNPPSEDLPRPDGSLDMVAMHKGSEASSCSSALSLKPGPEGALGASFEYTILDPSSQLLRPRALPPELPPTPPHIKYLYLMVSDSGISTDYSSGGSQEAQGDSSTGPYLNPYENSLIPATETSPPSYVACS

T2: mouse EPOR expressed on Ba/F3 cells (BaF3/mouse EPOR) (mouse) (UniProt P14753)
T2 sequence: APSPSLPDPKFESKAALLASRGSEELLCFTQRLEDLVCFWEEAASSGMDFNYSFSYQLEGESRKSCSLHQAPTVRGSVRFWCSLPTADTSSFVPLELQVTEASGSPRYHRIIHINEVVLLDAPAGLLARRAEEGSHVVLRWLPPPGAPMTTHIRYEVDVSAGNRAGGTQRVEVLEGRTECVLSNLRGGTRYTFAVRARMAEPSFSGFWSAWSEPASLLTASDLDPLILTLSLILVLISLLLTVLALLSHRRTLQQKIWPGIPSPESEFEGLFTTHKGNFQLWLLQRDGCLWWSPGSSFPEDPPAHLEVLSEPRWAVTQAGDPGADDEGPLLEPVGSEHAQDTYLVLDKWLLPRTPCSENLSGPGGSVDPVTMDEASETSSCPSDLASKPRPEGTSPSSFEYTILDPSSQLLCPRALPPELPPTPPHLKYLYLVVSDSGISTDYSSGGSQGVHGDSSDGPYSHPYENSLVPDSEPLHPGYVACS


Tests used:
[1] = molecular target: T1, cat EPOR expressed on Ba/F3 cells (BaF3/cat EPOR) (cat)
[2] = molecular target: T2, mouse EPOR expressed on Ba/F3 cells (BaF3/mouse EPOR) (mouse)

Molecule | EC50 (read off the curve), BaF3/cat EPOR cell proliferation [1] [nM] | EC50 (read off the curve), BaF3/mouse EPOR cell proliferation [2] [nM]
human EPO (PeproTech) (from UniProt P01588 28-193) (ligand) | 0.02 | –
wild-type cat EPO-His (fusion protein of cat EPO and His tag) (from UniProt P33708 27-192) (ligand) | 0.03 | 0.04
wild-type mouse EPO-His (fusion protein of mouse EPO and His tag) (ligand) APPRLICDSRVLERYILEAKEAENVTMGCAEGPRLSENITVPDTKVNFYAWKRMEVEEQAIEVWQGLSLLSEAILQAQALLANSSQPPETLQLHIDKAISGLRSLTSLLRVLGAQKELMSPPDTTPPAPLRTLTVDTFCKLFRVYANFLRGKLKLYTGEVCRRGDRGAAHHHHHHHHH | – | 0.05
cat EPO-Fc (C165R cat EPO-siCFV3) of Examples 12 and 13 (Fc fusion, not shown: small tags and cut ends) APPRLICDSRVLERYILEAREAENVTMGCAEGCSFSENITVPDTKVNFYTWKRMDVGQQAVEVWQGLALLSEAILRGQALLANSSQPSETLQLHVDKAVSSLRSLTSLLRALGAQKEATSLPEATSAAPLRTFTVDTLRKLFRIYSNFLRGKLTLYTGEACRRGDRPPEMRRGPKIFIFPPKPKDTLSISRTPEVTCLVVDLGPDDSDVQITWFVDNTQVYTAKTSPREEQFNSTYRVVSVLPILHQDWLKGKEFKCKVNSKSLPSPIERTISKAKGQPHEPQVYVLPPAQEELSRNKVSVTCLIKSFHPPDIAVEWEITGQPEPENNYRTTPPQLDSDGTYFVYSKLSVDRSHWQRGNTYTCSVLHEALHAHHTRKELTQSPGK | 0.02 | 0.05
